In patent US20190382474A1 (SURFACE ONCOLOGY, published 2019):

T1: recombinant mouse IL-27 (mouse, UniProt O35228 19-228; Q8K3I6 29-234, limits assumed)
T1 construct: also called rodent recombinant IL-27
T1 sequence (looked up) 1: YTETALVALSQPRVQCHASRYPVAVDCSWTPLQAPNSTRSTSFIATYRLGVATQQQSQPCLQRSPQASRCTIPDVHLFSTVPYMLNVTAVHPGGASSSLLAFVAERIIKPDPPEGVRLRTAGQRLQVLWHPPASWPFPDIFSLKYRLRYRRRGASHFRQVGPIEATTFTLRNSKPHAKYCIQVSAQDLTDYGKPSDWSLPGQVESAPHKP
T1 sequence (looked up) 2: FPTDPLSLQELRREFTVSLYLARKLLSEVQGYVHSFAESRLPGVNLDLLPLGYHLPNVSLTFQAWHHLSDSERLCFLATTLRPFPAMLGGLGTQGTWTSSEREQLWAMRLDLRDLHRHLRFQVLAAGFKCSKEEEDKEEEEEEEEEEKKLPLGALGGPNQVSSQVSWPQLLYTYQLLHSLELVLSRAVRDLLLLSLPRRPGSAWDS

T2: recombinant human IL-27 (human, UniProt Q14213 21-229; Q8NEV9 29-243)
T2 construct: Bought from R&D Systems (Cat. 2526-IL); also called hIL-27; rhIL-27
T2 sequence 1: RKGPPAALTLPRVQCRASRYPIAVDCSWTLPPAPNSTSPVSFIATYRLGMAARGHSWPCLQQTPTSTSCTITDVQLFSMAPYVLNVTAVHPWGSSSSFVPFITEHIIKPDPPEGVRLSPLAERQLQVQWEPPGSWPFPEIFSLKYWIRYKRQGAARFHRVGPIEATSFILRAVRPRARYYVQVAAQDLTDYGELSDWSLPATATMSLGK
T2 sequence 2: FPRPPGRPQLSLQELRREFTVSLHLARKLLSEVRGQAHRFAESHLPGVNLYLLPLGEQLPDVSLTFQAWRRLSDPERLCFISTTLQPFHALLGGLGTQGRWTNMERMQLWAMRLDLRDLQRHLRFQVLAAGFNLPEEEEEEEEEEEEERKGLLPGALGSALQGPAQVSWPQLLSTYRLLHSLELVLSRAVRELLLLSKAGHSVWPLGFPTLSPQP


Assays:
recombinant mouse IL-27 = biological target: T1, recombinant mouse IL-27; assay: column 'Affinity mIL-27 (M)'; method not given
recombinant human IL-27 [1] = biological target: T2, recombinant human IL-27; assay: column 'Affinity hIL-27 (M)', property (i); method not given, paragraph 885 names SPR (BIACORE 2000)
recombinant human IL-27 [2] = biological target: T2, recombinant human IL-27; assay: SPR (BIACORE 2000) as the paragraph says; values in FIG. 9

Binder	Kd (recombinant mouse IL-27)	Kd (recombinant human IL-27 [1])	Kd (recombinant human IL-27 [2])	binding result (recombinant mouse IL-27)
SRF382 (antibody, V domains shown, also called SRF382-A; SRF382-B) VH: EVQLVESGGGLVKPGGSLRLSCAASGFTFSRTGMNWVRQAPGKGLEWVSSISSSSSYIYYADSVKGRFTISRDNAKNSLYLQMNSLRAEDTAVYYCARDGGRTSYTATAHNWFDPWGQGTLVTVSS VL: not shown	2.5 nM	0.0075 nM	≤ 15 nM	–
SRF384 (antibody, V domains shown, also called SRF384-A; SRF384-B) VH: EVQLVESGGGLVKPGGSLRLSCAASGFTFSRYGMNWVRQAPGKGLEWVSSISSSSAYILYADSVKGRFTISRDNAKNSLYLQMNSLRAEDTAVYYCARDGGRTSYTATAHNWFDPWGQGTLVTVSS VL: not shown	0.405 nM	0.0024 nM	≤ 15 nM	–
SRF386 (antibody, V domains shown, also called SRF386-A; SRF386-B) VH: EVQLVESGGGLVKPGGSLRLSCAASGFTFASYGMNWVRQAPGKGLEWVSSISSSSSYIYYADSVKGRFTISRDNAKNSLYLQMNSLRAEDTAVYYCARDGGRTSYTATAHNWFDPWGQGTLVTVSS VL: not shown	1.75 nM	0.0034 nM	≤ 15 nM	–
SRF529 (antibody, V domains shown, also called SRF529-A; SRF529-B) VH: EVQLVESGGGLVKPGGSLRLSCAASGFTFSSYSMNWVRQAPGKGLEWVSSISSSSSYIYYADSVKGRFTISRDNAKNSLYLQMNSLRAEDTAVYYCARDGGRTSYTATAHNWFDPWGQGTLVTVSS VL: not shown	1.33 nM	0.0059 nM	–	–
Ab7 (antibody, mouse hybridoma antibody (mIgG2a/kappa); also called isolated anti-EBI3 antibody Ab7; parental Ab7 antibody) heavy: EVKLVESGGGLVQPGGSLKLFCAASGFTFTSYSMSWVRQTPEKRLEWVAYISYDGGSAYYPDTVKGRFSISRDNAKKTLYLQMSSLKSEDTAMYYCARHGDYDDDDAMDYWGQGTSVTVSSAKTTAPSVYPLAPVCGDTTGSSVTLGCLVKGYFPEPVTLTWNSGSLSSGVHTFPAVLQSDLYTLSSSVTVTSSTWPSQSITCNVAHPASSTKVDKKIEPRGPTIKPCPPCKCPAPNLLGGPSVFIFPPKIKDVLMISLSPIVTCVVVDVSEDDPDVQISWFVNNVEVHTAQTQTHREDYNSTLRVVSALPIQHQDWMSGKEFKCKVNNKDLPAPIERTISKPKGSVRAPQVYVLPPPEEEMTKKQVTLTCMVTDFMPEDIYVEWTNNGKTELNYKNTEPVLDSDGSYFMYSKLRVEKKNWVERNSYSCSVVHEGLHNHHTTKSFSRTPGK light: DIQMTQSPASLSASVGETVTITCRASENIYSYLAWYQQKQGKSPQLLVYNAETLTEGVPSRFSGSGSGTQFSLKINSLQPEDFGNYYCQHHYGTPLTFGAGTKLDLKADAAPTVSIFPPSSEQLTSGGASVVCFLNNFYPKDINVKWKIDGSERQNGVLNSWTDQDSKDSTYSMSSTLTLTKDEYERHNSYTCEATHKTSTSPIVKSFNRNEC	–	1 nM	–	no binding
SRF536 (antibody, V domains shown, also called SRF536-A; SRF536-B) VH: QVQLQQWGAGLLKPSETLSLTCAVYGGSFSEYYWAWIRQPPGKGLEWIGEIDEVGSTNYNPSLKSRVTISVDTSKNQFSLKLSSVTAADTAVYYCARLPMYYYDSSDLPMDVWGQGTTVTVSS VL: not shown	80.5 nM	0.048 nM	–	–
SRF543 (antibody, V domains shown, also called SRF543-A; SRF543-B) VH: QVQLQQWGAGLLKPSETLSLTCAVYGGSFSDYEWSWIRQPPGKGLEWIGEIDWSGITNYNPSLKSRVTISVDTSKNQFSLKLSSVTAADTAVYYCARLPMYYYDSSVSTGSVDVWGQGTMVTVSS VL: not shown	62.1 nM	0.026 nM	–	–
